Ends that are not written are not given here.
B1: Human hexokinase I (HK‐I), recombinant (enzyme, UniProt P19367 1-917, looked up)
chain: MIAAQLLAYYFTELKDDQVKKIDKYLYAMRLSDETLIDIMTRFRKEMKNGLSRDFNPTATVKMLPTFVRSIPDGSEKGDFIALDLGGSSFRILRVQVNHEKNQNVHMESEVYDTPENIVHGSGSQLFDHVAECLGDFMEKRKIKDKKLPVGFTFSFPCQQSKIDEAILITWTKRFKASGVEGADVVKLLNKAIKKRGDYDANIVAVVNDTVGTMMTCGYDDQHCEVGLIIGTGTNACYMEELRHIDLVEGDEGRMCINTEWGAFGDDGSLEDIRTEFDREIDRGSLNPGKQLFEKMVSGMYLGELVRLILVKMAKEGLLFEGRITPELLTRGKFNTSDVSAIEKNKEGLHNAKEILTRLGVEPSDDDCVSVQHVCTIVSFRSANLVAATLGAILNRLRDNKGTPRLRTTVGVDGSLYKTHPQYSRRFHKTLRRLVPDSDVRFLLSESGSGKGAAMVTAVAYRLAEQHRQIEETLAHFHLTKDMLLEVKKRMRAEMELGLRKQTHNNAVVKMLPSFVRRTPDGTENGDFLALDLGGTNFRVLLVKIRSGKKRTVEMHNKIYAIPIEIMQGTGEELFDHIVSCISDFLDYMGIKGPRMPLGFTFSFPCQQTSLDAGILITWTKGFKATDCVGHDVVTLLRDAIKRREEFDLDVVAVVNDTVGTMMTCAYEEPTCEVGLIVGTGSNACYMEEMKNVEMVEGDQGQMCINMEWGAFGDNGCLDDIRTHYDRLVDEYSLNAGKQRYEKMISGMYLGEIVRNILIDFTKKGFLFRGQISETLKTRGIFETKFLSQIESDRLALLQVRAILQQLGLNSTCDDSILVKTVCGVVSRRAAQLCGAGMAAVVDKIRENRGLDRLNVTVGVDGTLYKLHPHFSRIMHQTVKELSPKCNVSFLLSEDGSGKGAALITAVGVRLRTEASS
modifications: fluorescently labeled using a NanoTemper BLUE protein‐labeling kit (in the MST)

Tests used:
[1] = test system: PWR‐1E; experiment: Cell death, PI staining and FACS; assay type: cell-based; settings: 6 h, PI/FACS (Fig. 2G)
Procedure: (§1) Leukemia cells, U‐937, MEC‐1 cells (4 × 10^5 or 8 × 10^5 cells/sample, respectively), as well as other leukemia or suspension cell lines, were incubated in 200 μL serum‐free medium with various concentrations of the peptide for 90 min at 23–25 °C, collected by centrifugation (500 g, 5 min), washed with PBS, and analyzed for cell death. Adherent cells (6 × 10^5 mL^−1 at 70–80% confluence) were incubated with the peptide of interest in 500 μL serum‐free recommended culture medium for 3–6 h at 37 °C and 5% CO2. The cells were then trypsinized, centrifuged (1500 g, 5 min), washed with PBS, and analyzed for the desired activity. Following peptide treatment, cells were subjected to cell death analysis. […] PRO software (BD Biosciences, San Jose, CA, USA).
(§2) For each line, cells were incubated with different peptide concentrations, and cell death was determined by PI staining and FACS analysis (Figs 1, 2, 3).

[2] = test system: T‐Rex‐293; experiment: Cell death, PI staining and FACS; assay type: cell-based, human
Procedure: as §1, §2

[3] = test system: PANC1; experiment: Cell death, PI staining and FACS; assay type: cell-based; settings: PANC1 (Group 3, Fig. 1H); 6 h; about 10% in the absence of peptides
Procedure: as §1, §2

[4] = molecular target: voltage‐dependent anion channel 1 (VDAC1) (human (endogenous in HeLa), UniProt P21796 1-283); experiment: cell-based or functional assay
[5] = molecular target: T1, Human hexokinase II (HK‐II), recombinant (human, UniProt P52789 1-917, fluorescently labeled using a NanoTemper BLUE protein‐labeling kit (in the MST)); experiment: MST
T1 chain: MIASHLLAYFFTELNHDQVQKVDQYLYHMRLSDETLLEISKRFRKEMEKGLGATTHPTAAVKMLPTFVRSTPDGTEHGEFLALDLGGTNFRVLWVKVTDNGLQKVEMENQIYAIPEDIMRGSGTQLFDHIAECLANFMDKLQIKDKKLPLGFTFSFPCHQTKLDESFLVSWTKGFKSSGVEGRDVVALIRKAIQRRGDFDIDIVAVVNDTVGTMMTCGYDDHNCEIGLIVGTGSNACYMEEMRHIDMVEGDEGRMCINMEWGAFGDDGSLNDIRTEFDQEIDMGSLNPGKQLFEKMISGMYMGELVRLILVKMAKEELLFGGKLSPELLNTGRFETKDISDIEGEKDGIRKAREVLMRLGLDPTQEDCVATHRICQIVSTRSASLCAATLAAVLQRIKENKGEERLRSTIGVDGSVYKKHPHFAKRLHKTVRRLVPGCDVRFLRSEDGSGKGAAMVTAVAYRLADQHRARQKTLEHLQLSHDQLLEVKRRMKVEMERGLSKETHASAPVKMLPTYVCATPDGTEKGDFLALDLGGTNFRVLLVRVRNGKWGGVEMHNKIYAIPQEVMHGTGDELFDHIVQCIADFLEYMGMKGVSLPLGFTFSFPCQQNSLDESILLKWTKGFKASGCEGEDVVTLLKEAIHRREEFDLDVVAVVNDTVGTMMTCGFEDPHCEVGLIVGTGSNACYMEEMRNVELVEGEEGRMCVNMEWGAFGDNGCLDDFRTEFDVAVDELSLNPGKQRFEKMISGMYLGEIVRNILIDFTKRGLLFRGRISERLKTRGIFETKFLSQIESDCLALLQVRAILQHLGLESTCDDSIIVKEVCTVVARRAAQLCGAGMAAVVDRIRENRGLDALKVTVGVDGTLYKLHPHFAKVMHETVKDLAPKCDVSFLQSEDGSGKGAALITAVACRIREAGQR

[6] = molecular target: B1; experiment: MST; fluorescently labeled HK‐I (830 nM) or HK‐II (100 nM) incubated 20 min with peptide (1–100 μM) in PBS; NanoTemper Monolith‐NT115, 40% LED, 40% IR laser power; settings: both partners purified
[7] = molecular target: T2, Human hexokinase II (HK‐II), recombinant (human, UniProt P52789 1-917, fluorescently labeled using a NanoTemper BLUE protein‐labeling kit (in the MST)); experiment: as above; settings: both partners purified
T2 construct: hexokinase II (HK‐II), human, cloned into plasmid pET‐His; source: E. coli BL21, IPTG induction, purified (HiTrap nickel column, Blue HiTrap column)
T2 sequence (looked up): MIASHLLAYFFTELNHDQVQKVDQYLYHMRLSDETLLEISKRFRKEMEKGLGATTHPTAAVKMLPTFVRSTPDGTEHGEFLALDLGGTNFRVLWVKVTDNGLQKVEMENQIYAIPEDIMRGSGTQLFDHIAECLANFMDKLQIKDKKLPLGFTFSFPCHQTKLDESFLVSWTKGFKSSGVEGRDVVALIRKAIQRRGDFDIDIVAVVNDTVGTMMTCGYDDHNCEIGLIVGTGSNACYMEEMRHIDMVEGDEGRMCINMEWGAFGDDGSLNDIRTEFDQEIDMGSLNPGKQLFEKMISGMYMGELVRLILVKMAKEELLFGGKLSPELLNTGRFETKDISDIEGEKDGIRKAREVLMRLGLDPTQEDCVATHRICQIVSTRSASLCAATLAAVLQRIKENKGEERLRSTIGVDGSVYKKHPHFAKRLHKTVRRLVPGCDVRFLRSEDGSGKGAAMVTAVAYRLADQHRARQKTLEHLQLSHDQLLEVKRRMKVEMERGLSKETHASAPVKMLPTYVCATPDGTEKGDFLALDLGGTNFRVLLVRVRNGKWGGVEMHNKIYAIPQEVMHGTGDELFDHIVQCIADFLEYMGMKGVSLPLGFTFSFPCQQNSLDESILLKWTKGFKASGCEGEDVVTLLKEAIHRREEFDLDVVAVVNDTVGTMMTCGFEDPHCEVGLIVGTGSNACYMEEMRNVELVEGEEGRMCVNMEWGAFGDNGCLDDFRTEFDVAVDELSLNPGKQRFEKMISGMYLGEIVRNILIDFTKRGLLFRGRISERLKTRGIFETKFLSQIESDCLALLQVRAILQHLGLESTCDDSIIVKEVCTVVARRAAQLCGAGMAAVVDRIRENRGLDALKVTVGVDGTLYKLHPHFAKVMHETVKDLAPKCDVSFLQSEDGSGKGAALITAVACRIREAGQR

For “HAIYPRHSWTWE-199-KKLETA VNLAWTAGNSN-216-KWTWK [Tf‐LP4]”, the “cell death induction in noncancerous cells” value [1] was “almost no cell death induction” and the “cell death induction in noncancerous cells” value ([2]; T‐Rex‐293, 6 h, PI/FACS (Fig. 2E)) was “almost no cell death induction”.

For “MAVPPTYADLGKSARDVFTKGYGFGLRQIKIWFQNRRMKWKK [N‐Ter‐Antp]”, the “steady‐state level of cell death” value [3] was “about 50%” and the “steady‐state level of cell death” value ([2]; T‐Rex‐293 (Group 3, Fig. 1I), 6 h, about 10% in the absence of peptides) was “about 50%”.

With B1 the “HK‐I in the cytosolic fraction (0.025% digitonin fractionation, immunoblot) of A549 cells treated with Tf‐D‐LP4 (3, 5, 10 μM, 3 h)” value [4] was ~2 fold and the “HK‐I in the cytosolic fraction (0.025% digitonin fractionation, immunoblot) of HeLa cells treated with R‐Tf‐D‐LP4 (3, 5, 10 μM, 3 h)” value [4] was ~2 fold.

B2: Antp‐LP4 (peptide)
peptide: RQIKIWFQNRRMKWKKSWTWEKKLETAVNLAWTAGNSNKWTWK
notes: amino acids added to form a loop‐shaped tryptophan zipper (N‐terminal arm); amino acids added to form a loop‐shaped tryptophan zipper (C‐terminal arm); 43 residues as printed; source: synthetic peptide (GL Biochem, > 85% purity)
For B2, the Kd [5] was 7.1 µM, the binding result [6] was “binds” and the binding result [7] was “binds”.
